Data taken from US20030175712A1 (published 2003).
Numbering of substitutions follows the chain as printed.

Experiments:
[1] = molecular target: T1, Cdc24p (1-160 aa) fused to GAL4 DBD (S. cerevisiae, UniProt P04386 1-147; P11433 1-160); assay: yeast two-hybrid, Cdc24p fragments fused to DBD
T1 construct: also called amino-terminal fragment consisting of the first 160 amino acid residues
Description: (§1) Plasmids were transformed into HF7c. For determination of STE18 requirement, PCR-based geene disruption was carried out in PJ69-4A (MATa, trp1-901, leu2-3,112, ura3-52, his3-200, gal4D, gal80D, GAL2-ADE2, LYS2::GAL1-HIS3, met2::GAL7-lacZ)²⁹, replacing the entire STE18 ORF with K. Lactis URA3³⁰. For all two-hybrid experiments, equal amounts of transfonnants were spotted on SC-leu-trp and SC-leu-trp-his plates, identical results were obtained with at least four transformants, and for Dste18 two independent deletion strains. All strains for two-hybrid analyses expressed similar amounts of AD- and DBD- fusion proteins of the expected sizes, as determined by SDS-PAGE and immuno-blotting.
(§2) cdc24-m mutants are defective in mating and Ste4p (Gβ) binding. a, Location of Cdc24p mating mutations. Mating patches show diploids from mating with MATa WT tester. Ste4 2-H patch growth on -leu-trp-his indicates an interaction of Cdc24p (1-288 aa) with Ste4p. Similar results were obtained using a LacZ reporter in strain Y187 (relative Miller Units 100 for Cdc24/Ste4 and 3 for Cdc24-m1/Ste4). b, Two hybrid interactions of Cdc24p. Fror interactions with Ste4p, a fragment of Cdc24p (1-288 aa) was used, however, fill length Cdc24p also interats with Ste4p. c, Region of Cdc24p necessary for Ste4p interaction. […]

[2] = molecular target: T2, Cdc24-m1p (1-288 aa), GAL4 two-hybrid fusion (S. cerevisiae, UniProt P11433 1-288); assay: yeast two-hybrid, growth on -leu-trp-his
T2 construct: also called cdc24-m1 (1-288)
T2 sequence: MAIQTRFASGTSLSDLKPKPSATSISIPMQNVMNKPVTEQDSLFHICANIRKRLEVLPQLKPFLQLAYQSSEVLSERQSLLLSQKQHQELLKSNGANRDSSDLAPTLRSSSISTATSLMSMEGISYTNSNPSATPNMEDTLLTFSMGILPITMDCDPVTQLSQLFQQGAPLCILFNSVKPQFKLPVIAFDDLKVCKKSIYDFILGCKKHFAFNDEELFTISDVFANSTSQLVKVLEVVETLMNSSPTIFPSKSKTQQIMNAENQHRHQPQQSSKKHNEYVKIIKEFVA
Description: as §1, §2

[3] = molecular target: T3, Cdc24-m3p (1-288 aa), GAL4 two-hybrid fusion (S. cerevisiae, UniProt P11433 1-288); assay: yeast two-hybrid, growth on -leu-trp-his
T3 sequence: T2 sequence with F189P
Description: as §1, §2

GST = molecular target: T4, GST (UniProt P08515 1-218 = GST); assay: GSH-agarose pull-down from mixed bacterial extracts, immunoblot
T4 construct: Control; also called GST alone; glutathione-S-transferase
Description: (§3) A fragment of CDC24 (1-472 aa) in pGEX-2T (Pharmacia) and His₆Ste4p (pTrcSte4) were expressed in E. coli. Cells were resuspended in buffer A (PBS, 0.1% TX-100, Phenyl Methyl Sulfonyl Fluoride (PMSF), leupeptin, chymostatin, pepstatin, aprotinin) and lysed by snap freezing in liquid nitrogen followed by sonicatioin. Insoluble material was removed by centrifuigation (10,000 g). Mixed supernatants (denoted cell extracts) containing His₆Ste4 and GSTCdc24 fusions were incubated with GSH-agarose (Sigma Chemical Co.) at 4° for 1 hr. Resin was washed 3 times with buffer A. Resin samples (referred to as eluates) and extracts were analyzed by SDS-PAGE, immuno-blottinig probed with Omni-probe anti-sera (Santa Cruz), and visualised with enhanced chemiluhniuescence (Amershan).
as §2

GSTCdc24p (1-127 aa) = molecular target: T5, GSTCdc24p (1-127 aa) (S. cerevisiae, UniProt P11433 1-127); assay: as above
T5 construct: not shown: glutathione-S-transferase as encoded by pGEX-2T (Pharmacia)
T5 sequence (looked up): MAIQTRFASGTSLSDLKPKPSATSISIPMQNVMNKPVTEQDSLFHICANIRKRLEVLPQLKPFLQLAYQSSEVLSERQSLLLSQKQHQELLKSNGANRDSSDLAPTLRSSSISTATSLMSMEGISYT
Description: as §3, §2

T4 sequence (P08515 whole entry): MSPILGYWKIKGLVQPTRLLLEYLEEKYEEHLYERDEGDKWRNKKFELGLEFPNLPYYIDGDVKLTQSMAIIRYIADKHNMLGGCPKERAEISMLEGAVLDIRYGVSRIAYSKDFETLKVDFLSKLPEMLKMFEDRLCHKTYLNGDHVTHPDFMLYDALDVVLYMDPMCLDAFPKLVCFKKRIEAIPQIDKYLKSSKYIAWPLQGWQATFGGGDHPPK

B1: Ste4p, GAL4 two-hybrid fusion (other, not shown: small tags and cut ends)
chain: MAHQMDSITYSNNVTQQYIQPQSLQDISAVEEEIQNKIEAARQESKQLHAQINKAKHKIQDASLFQMANKVTSLTKNKINLKPNIVLKGHNNKISDFRWSRDSKRILSASQDGFMLIWDSASGLKQNAIPLDSQWVLSCAISPSSTLVASAGLNNNCTIYRVSKENRVAQNVASIFKGHTCYISDIEFTDNAHILTASGDMTCALWDIPKAKRVREYSDHLGDVLALAIPEEPNLENSSNTFASCGSDGYTYIWDSRSPSAVQSFYVNDSDINALRFFKDGMSIVAGSDNGAINMYDLRSDCSIATFSLFRGYEERTPTPTYMAANMEYNTAQSPQTLKSTSSSYLDNQGVVSLDFSASGRLMYSCYTDIGCVVWDVLKGEIVGKLEGHGGRVTGVRSSPDGLAVCTGSWDSTMKIWSPGYQ
notes: also called Gβ
B1: no binding [1]; no binding [2]; no binding [3].

B2: His6Ste4p (other)
chain: B1 chain
notes: Expressed in E. coli; migrates as a doublet due to proteolysis; also called Hexahistidine-tagged Ste4p; pTrcSte4; not shown: hexahistidine tag with the leader of the pTrc vector
B2: no binding (GST); no binding (GSTCdc24p (1-127 aa)).
